Experimental data published in patent US20070087411A1.

Target: recombinant human IL-1β (human) (UniProt P01584)
Assay: cell-based or functional assay

Chain of UniProt P01584 (P01584 117-269 limits assumed): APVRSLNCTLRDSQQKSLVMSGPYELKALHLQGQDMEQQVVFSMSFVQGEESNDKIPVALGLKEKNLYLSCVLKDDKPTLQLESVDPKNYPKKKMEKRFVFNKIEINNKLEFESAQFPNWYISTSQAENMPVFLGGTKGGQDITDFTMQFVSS

Row | IC50 pM (HEK293/NFκB-luciferase bioassay, IL-1β at 4 pM) | Substance
1 | 100 pM | hIL-1RAcp.hIL-1R1.TG.hFc.ARA.CTP.TG.hFc (Fc fusion)
2 | 3400 pM | hIL-1RAcp.hIL-1R1.myc.myc.His6 (receptor)
3 | 23 pM | hIL-1RI.TG.hFc.ARA.CTP.TG.hFc.ARA.hIL-1RAcP (Fc fusion)
